Test results: patent US20070036789A1 (NATIONAL CANCER CENTER, published 2007)
Where a chain is given by its changes, count along the chain named.

T1: phage containing the peptide of SEQ ID NO: 32
T1 construct: The phage coat fusion is not described
T1 peptide: HHPHFKPVSNSR

T2: phage containing the peptide of SEQ ID NO: 33
T2 construct: The phage coat fusion is not described
T2 peptide: KSLSRHDHIHHH

B1: anti-HGF H61 Fab (Fab, V domains shown)
VH: QEQLMESGGRLVNPGESLTLTCKASGFTFSSYYMSWVRQAPGKGLEWIGYIGTSSGTTYYANSVKGRFTISSDNAQNTVFLRMTSLTDSDTATYFCARGLGRINLWGPGTLVTVSS
VL: ELVLTQTPSSMSAAVGGTVTINCQASQSVSNYLAWYQQKPGQPPKLLIYRASTLASGVPSRFSGSGSGTEFTLTISGMKAEDAATYYCQSGYYSAGATFGGGTNVEIKR
notes: Rabbit/human chimeric Fab: rabbit VH and VL joined to human CH1 and Ckappa from pComb3X; purified through its HA tag; also called clone 61; clone 61 Fab
B2: anti-HGF H68 Fab (Fab, V domains shown)
VH: B1 VH with E2Q, M5V, S31T, R82Q
VL: B1 VL with V3D, M11V, Y32L, R50G, T53N, A55E, S63R, G101A
notes: Rabbit/human chimeric Fab: rabbit VH and VL joined to human CH1 and Ckappa from pComb3X; purified through its HA tag; also called clone 68; clone 68 antibody

Columns and labels:
[1] = target: T1, phage containing the peptide of SEQ ID …; assay: phage peptide library panned on the coated Fab, clones selected by EIA
Procedure: (§1) A 96-well plate (costar No. 3690) was coated with anti-HGF H61 Fab or anti-HGF H68 Fab dissolved in 25 μl of TBS solution at a concentration of 10 μg/ml per well. PHD peptide library (phage display of combinatorial peptide library) (new England Biolob.) was added to the well plate, and then, the well plate was kept for 2 hrs at room temperature. The well plate was washed with 0.5% (v/v) Tween 20 in PBS and eluted with 0.1 M HCl-glycine (pH 2.2). The washing steps were increased from 5 times in the first round to 10 times in the second round and 15 times in the subsequent rounds. Typically seven rounds of panning were carried out. After the last round of panning, the phage clones containing anti-HGF H61 Fab or anti-HGF H68 Fab were selected by EIA using anti-HGF H61 Fab or anti-HGF H68 Fab-coated ELISA plate and horseradish peroxidase-conjugated anti-M13 phage goat monoclonal antibody (Roche). The selected clones were subjected to nucleotide sequencing and the amino acid sequences were determined from the analyzed nucleotide sequences.
(§2) Nucleotide sequencing was performed according to the dye-labeled primer sequencing method (Chung et al., supra) using a sequencing primer of SEQ ID NO: 31. As a result, peptides encoding anti-HGF H61 and H68 Fabs deduced from the analyzed nucleotide sequences had the amino acid sequences of SEQ ID NOs: 32 and 33, respectively.

[2] = target: T2, phage containing the peptide of SEQ ID …; assay: as above
Procedure: as §1, §2

c-Met = target: T3, c-Met (UniProt P08581 25-932, limits assumed); assay: SPR, c-Met on CM5 chip, Fab injected alone
T3 construct: also called HGF receptor
Procedure: To ascertain the fact that anti-HGF H68 Fab can inhibit the binding of HGF to c-Met in real time, c-Met was coupled to CM5 sensor chip through an amine coupling method. Thereafter, HGF alone was injected at a concentration of 50 nM, and premixed with anti-HGF H68 Fab of 5 different concentrations (50 nM, 250 nM, 500 nM, 1 μM and 1.5 μM) and soluble c-Met of 5 different concentrations (50 nM, 100 nM, 200 nM, 400 nM, 600 nM), respectively. Binding interaction was allowed to proceed in PBS buffer containing 0.005% surfactant P20 at a flow rate of 30 μl/min at 25° C. The surface was regenerated with 1 M NaCl/50 mM NaOH.
There was no binding of HGF in case when anti-HGF H68 Fab alone was injected.

T3 sequence (P08581 25-932 limits assumed): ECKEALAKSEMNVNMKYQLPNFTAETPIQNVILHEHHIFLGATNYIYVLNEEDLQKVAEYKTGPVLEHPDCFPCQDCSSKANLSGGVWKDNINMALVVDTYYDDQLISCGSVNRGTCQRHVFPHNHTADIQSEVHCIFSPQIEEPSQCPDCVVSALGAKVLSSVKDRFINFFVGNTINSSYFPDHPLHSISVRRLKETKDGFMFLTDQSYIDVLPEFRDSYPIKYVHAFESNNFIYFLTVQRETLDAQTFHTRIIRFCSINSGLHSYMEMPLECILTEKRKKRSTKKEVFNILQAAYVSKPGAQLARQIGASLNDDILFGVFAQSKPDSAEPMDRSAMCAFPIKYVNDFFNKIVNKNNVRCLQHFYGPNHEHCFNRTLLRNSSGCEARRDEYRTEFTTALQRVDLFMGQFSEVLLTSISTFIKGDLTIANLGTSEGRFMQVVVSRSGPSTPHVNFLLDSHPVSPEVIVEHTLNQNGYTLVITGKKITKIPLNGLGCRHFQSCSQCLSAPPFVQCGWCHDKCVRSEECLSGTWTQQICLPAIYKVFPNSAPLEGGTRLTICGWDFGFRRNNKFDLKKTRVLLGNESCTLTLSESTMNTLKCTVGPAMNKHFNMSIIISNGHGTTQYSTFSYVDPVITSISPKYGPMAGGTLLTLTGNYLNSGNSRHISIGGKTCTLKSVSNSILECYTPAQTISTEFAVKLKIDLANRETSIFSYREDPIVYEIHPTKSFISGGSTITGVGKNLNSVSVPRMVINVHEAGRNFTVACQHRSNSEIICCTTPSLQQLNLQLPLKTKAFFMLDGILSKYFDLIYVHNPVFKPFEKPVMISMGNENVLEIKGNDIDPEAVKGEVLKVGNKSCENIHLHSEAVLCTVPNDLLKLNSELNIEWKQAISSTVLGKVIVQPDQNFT

Binder | binding result [1] | binding result [2] | binding result (c-Met)
B1 | binds |  | 
B2 | binds | binds | no binding
